Measured values published in the supplement of paper PMC10724198.
± gives the standard deviation of the averaged measurements.

Legend:
Saccharomyces cerevisiae [1] = test: protein stability index of tFT-peptide fusion (C-terminal peptide) (PSI (0-1 scale)); higher = more stable (slower turnover)
Description: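 MPS profiling in S. cerevisiae of the tFT-X12 degron library: putative degron peptides plus stable controls, 12 aa, fused to the C-terminus of a sfGFP-mCherry timer. Cells are FACS-sorted into 8 mCherry/sfGFP bins and deep-sequenced. PSI runs from 0 (unstable) to 1 (stable). Backgrounds are wild type, das1Δ and doa10Δ at 30 °C, and wild type, das1Δ, cdc34-1 and cdc53-1 at 37 °C; 2-3 technical replicates each.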

Saccharomyces cerevisiae [2] = test: as above; details: genetic background: wild type; temperature: 30 C
[3] = genetic background: cdc34-1, temperature: 37 C
[4] = genetic background: cdc53-1, temperature: 37 C
[5] = genetic background: das1 deletion, temperature: 30 C
[6] = genetic background: das1 deletion, temperature: 37 C
[7] = genetic background: doa10 deletion, temperature: 30 C
[8] = genetic background: wild type, temperature: 30 C
[9] = genetic background: wild type, temperature: 37 C
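Note: PSI is a weighted mean of sequencing reads over stability bins, variants kept only with over 10 reads, mCherry proximal and sfGFP distal, peptide attached via GGGS linker.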

Sequence | protein stability index (Saccharomyces cerevisiae [1]; [3]) | protein stability index (Saccharomyces cerevisiae [1]; [4]) | protein stability index (Saccharomyces cerevisiae [1]; [5]) | protein stability index (Saccharomyces cerevisiae [1]; [6]) | protein stability index (Saccharomyces cerevisiae [1]; [7]) | protein stability index (Saccharomyces cerevisiae [1]; [8]) | protein stability index (Saccharomyces cerevisiae [1]; [9]) | protein stability index (Saccharomyces cerevisiae [2])
FFLLLVGFSVLG | 0.223 ± 0.071 | 0.265 ± 0.012 | 0.238 ± 0.024 | 0.421 ± 0.024 | 0.224 ± 0.024 | 0.222 ± 0.021 | 0.373 ± 0.0038 | 0.349 ± 0.0064
RVVNRWGVCFLG | 0.6 ± 0.0065 | 0.7178 ± 0.0067 | 0.639 ± 0.014 | 0.733 ± 0.021 | 0.124 ± 0.014 | 0.131 ± 0.0093 | 0.199 ± 0.015 | 0.231 ± 0.0097
SDVLVVWVFFCR | 0.292 ± 0.0075 | 0.4196 ± 0.0033 | 0.26 ± 0.032 | 0.466 ± 0.013 | 0.216 ± 0.029 | 0.263 ± 0.037 | 0.435 ± 0.0063 | 0.405 ± 0.043
GGMGLWCCVSVG | 0.665 ± 0.01 | 0.6779 ± 0.0056 | 0.528 ± 0.027 | 0.68341 ± 0.00034 | 0.513 ± 0.015 | 0.54 ± 0.015 | 0.651 ± 0.0083 | 0.527 ± 0.099
RGFVVFCIPCFV | 0.301 ± 0.042 | 0.326 ± 0.021 | 0.259 ± 0.042 | 0.428 ± 0.033 | 0.204 ± 0.0051 | 0.243 ± 0.03 | 0.401 ± 0.038 | 0.3392 ± 0.002
VSFFCLICRVYP | 0.371 ± 0.0078 | 0.4463 ± 0.0044 | 0.317 ± 0.033 | 0.4808 ± 0.0037 | 0.298 ± 0.008 | 0.313 ± 0.012 | 0.417 ± 0.039 | 0.434 ± 0.099
KYKLYGIMIIEG | 0.39 ± 0.066 | 0.464 ± 0.016 | 0.283 ± 0.039 | 0.472 ± 0.026 | 0.258 ± 0.012 | 0.262 ± 0.013 | 0.462 ± 0.04 | 0.329 ± 0.078
YWFWLLIGSFSC | 0.487 ± 0.053 | 0.51 ± 0.013 | 0.382 ± 0.026 | 0.526 ± 0.011 | 0.36 ± 0.019 | 0.382 ± 0.024 | 0.504 ± 0.012 | 0.4576 ± 0.0029
FIGVLVYICREG | 0.1903 ± 0.0018 | 0.359 ± 0.084 | 0.254 ± 0.017 | 0.44 ± 0.024 | 0.187 ± 0.0062 | 0.228 ± 0.037 | 0.373 ± 0.018 | 0.329 ± 0.032
FPFPLSSFLLLY | 0.385 ± 0.015 | 0.401 ± 0.018 | 0.41 ± 0.032 | 0.516 ± 0.011 | 0.415 ± 0.028 | 0.331 ± 0.019 | 0.444 ± 0.0087 | 0.4195 ± 0.0039
VCDPWVFIRCLV | 0.418 ± 0.015 | 0.57354 ± 0.00022 | 0.418 ± 0.031 | 0.6025 ± 0.0034 | 0.11 ± 0.0075 | 0.118 ± 0.032 | 0.104 ± 0.018 | 0.234 ± 0.1
PLLPTPLTAPPP | 0.6705 ± 0.0022 | 0.73469 ± 0.00013 | 0.642 ± 0.031 | 0.7031 ± 0.006 | 0.659 ± 0.018 | 0.671 ± 0.023 | 0.6941 ± 0.0038 | 0.385 ± 0.0092
YGWILQLPCFVI | 0.246 ± 0.02 | 0.237 ± 0.00093 | 0.24 ± 0.031 | 0.37294 ± 0.00032 | 0.219 ± 0.0057 | 0.245 ± 0.023 | 0.315 ± 0.027 | 0.338 ± 0.0082
LLCLLLVPQPHR | 0.604 ± 0.015 | 0.66 ± 0.011 | 0.5965 ± 0.0049 | 0.651 ± 0.017 | 0.574 ± 0.027 | 0.584 ± 0.019 | 0.6376 ± 0.003 | 0.0268 ± 0.019
LFNRCCTILVVW | 0.189 ± 0.025 | 0.22 ± 0.026 | 0.198 ± 0.02 | 0.343 ± 0.01 | 0.181 ± 0.0051 | 0.2 ± 0.029 | 0.316 ± 0.021 | 0.299 ± 0.016
RRGGNIVWYCLV | 0.588 ± 0.025 | 0.694 ± 0.015 | 0.634 ± 0.0066 | 0.714 ± 0.011 | 0.125 ± 0.0088 | 0.148 ± 0.017 | 0.24 ± 0.0074 | 0.234 ± 0.017
ILVFHFWPFLVR | 0.411 ± 0.046 | 0.435 ± 0.015 | 0.351 ± 0.018 | 0.523 ± 0.018 | 0.418 ± 0.027 | 0.35 ± 0.017 | 0.503 ± 0.017 | 0.426 ± 0.04
AYVAPRRALMCS | 0.422 ± 0.02 | 0.495 ± 0.019 | 0.352 ± 0.031 | 0.517 ± 0.011 | 0.259 ± 0.011 | 0.281 ± 0.018 | 0.406 ± 0.017 | 0.421 ± 0.069
ALFISLAIWNWS | 0.0849 ± 0.024 | 0.154 ± 0.018 | 0.165 ± 0.027 | 0.318 ± 0.01 | 0.142 ± 0.011 | 0.139 ± 0.0085 | 0.2526 ± 0.00054 | 0.232 ± 0.012
SLLFPLPRPLLD | 0.7 ± 0.013 | 0.754 ± 0.018 | 0.677 ± 0.015 | 0.719 ± 0.016 | 0.686 ± 0.014 | 0.672 ± 0.024 | 0.7183 ± 0.005 | 0.731 ± 0.016
